Biological target: ActR-IIB extracellular domain (type II receptor ectodomain) (UniProt Q13705)
Assay: SPR; Reichert4SPR; biotinylated receptor ectodomains immobilised on a streptavidin-coated CMD200 chip (350-500 RU); BMP2 ligands as analytes, six concentrations from 160 nM (log 2 dilution series); 25 °C; 10 mM HEPES pH 7.4, 500 mM NaCl, 3.4 mM EDTA, 0.005% Tween-20; 10 μL/min; 1:1 Langmuir global fit; apparent KD, mean of two independent experiments

Sequence of UniProt Q13705 (Q13705 19-137): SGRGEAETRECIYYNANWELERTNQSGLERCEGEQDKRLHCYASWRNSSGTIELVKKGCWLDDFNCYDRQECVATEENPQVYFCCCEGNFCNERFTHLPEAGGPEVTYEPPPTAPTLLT

Kd: 11.6 nM
Substance: BMP2 Azide (BMP2 variant with H-L-Lys(EO-N3)-OH at position 83 of each chain) (ligand)

From paper PMC8999711
